How the values were obtained:
[1] = target: Murine GP130 ectodomain with C-terminal biotin acceptor peptide, biotinylated (murine) (UniProt Q00560); experiment: SPR
[2] = target: Murine IL-27Rα ectodomain (amino acids 28-224), N-terminally biotinylated (murine) (UniProt O70394); experiment: SPR
Murine IL-27Rα ectodomain (amino acids 28-224), N-terminally biotinylated (murine), sequence (O70394 28-224): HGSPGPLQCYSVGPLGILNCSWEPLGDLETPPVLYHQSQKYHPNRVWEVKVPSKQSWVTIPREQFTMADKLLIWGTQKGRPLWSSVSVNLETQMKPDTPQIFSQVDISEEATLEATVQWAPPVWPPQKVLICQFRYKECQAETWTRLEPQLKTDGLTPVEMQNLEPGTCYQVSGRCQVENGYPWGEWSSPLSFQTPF

Murine GP130 ectodomain with C-terminal biotin acceptor peptide, biotinylated (murine), sequence (Q00560 23-319): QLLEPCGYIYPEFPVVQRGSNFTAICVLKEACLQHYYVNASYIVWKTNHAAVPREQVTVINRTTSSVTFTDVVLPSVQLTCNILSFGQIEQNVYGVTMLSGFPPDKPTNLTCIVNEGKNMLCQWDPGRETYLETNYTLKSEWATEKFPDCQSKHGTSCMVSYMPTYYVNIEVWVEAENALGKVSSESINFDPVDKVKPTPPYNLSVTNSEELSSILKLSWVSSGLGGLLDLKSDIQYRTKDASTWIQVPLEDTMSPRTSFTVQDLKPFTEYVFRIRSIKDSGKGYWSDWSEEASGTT

Kd [1]: 3.1 nM
Kd [2]: 0.29 nM
Substance: Murine IL-27, linker-connected single-chain variant (p28+EBI3) (ligand)

From doi:10.1101/2022.02.18.481027
